Tested on: Escherichia coli TOP10
Experiment: shrunken log2 fold change of peptide-encoding DNA abundance (4.5 h post-induction vs induction); higher = less antimicrobial activity (less host growth inhibition)
Details: time post-induction: 4.5 h; library: site-saturation at positions 5, 18, 19, 20
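Note: peptides expressed intracellularly from a pBAD plasmid library in pooled LB shake-flask culture, induced with 0.3% L-arabinose, DNA abundance read by NGS, three biological replicates, DESeq2 with apeglm shrinkage.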

Sequence: RRIRFRPPRLPRPRPRPASPPRP
- shrunken log2 fold change: 0.164

Sequence: RRIRCRPPRLPRPRPRPSSFPRP
- shrunken log2 fold change: -0.0694

Sequence: RRIRIRPPRLPRPRPRPARGPRP
- shrunken log2 fold change: 0.624

Sequence: RRIRTRPPRLPRPRPRPRDKPRP
- shrunken log2 fold change: -0.18

Sequence: RRIRDRPPRLPRPRPRPTVQPRP
- shrunken log2 fold change: 0.158

Sequence: RRIRMRPPRLPRPRPRPLVYPRP
- shrunken log2 fold change: 0.19

Sequence: RRIRMRPPRLPRPRPRPPVTPRP
- shrunken log2 fold change: 0.673

Sequence: RRIRGRPPRLPRPRPRPGFVPRP
- shrunken log2 fold change: 0.768

Sequence: RRIRTRPPRLPRPRPRPGPTPRP
- shrunken log2 fold change: 0.455

Sequence: RRIRYRPPRLPRPRPRPNDFPRP
- shrunken log2 fold change: -0.0506

Sequence: RRIRARPPRLPRPRPRPFYHPRP
- shrunken log2 fold change: -0.462

Sequence: RRIRKRPPRLPRPRPRPAYRPRP
- shrunken log2 fold change: 0.0954

Sequence: RRIRPRPPRLPRPRPRPVKSPRP
- shrunken log2 fold change: -0.0156

Sequence: RRIRYRPPRLPRPRPRPKWGPRP
- shrunken log2 fold change: -0.297

Sequence: RRIRRRPPRLPRPRPRPLVAPRP
- shrunken log2 fold change: 0.755

Sequence: RRIRDRPPRLPRPRPRPTHTPRP
- shrunken log2 fold change: -0.311

Sequence: RRIRKRPPRLPRPRPRPPTHPRP
- shrunken log2 fold change: 0.42

Sequence: RRIRSRPPRLPRPRPRPMGYPRP
- shrunken log2 fold change: -0.0075

Sequence: RRIRNRPPRLPRPRPRPKQCPRP
- shrunken log2 fold change: -0.293

Sequence: RRIRPRPPRLPRPRPRPPHHPRP
- shrunken log2 fold change: 0.188

Sequence: RRIRYRPPRLPRPRPRPVGYPRP
- shrunken log2 fold change: -0.152

Sequence: RRIRQRPPRLPRPRPRPGLEPRP
- shrunken log2 fold change: 0.134

Sequence: RRIRGRPPRLPRPRPRPCGAPRP
- shrunken log2 fold change: 1.16

Sequence: RRIRFRPPRLPRPRPRPQNQPRP
- shrunken log2 fold change: -0.485

Sequence: RRIRYRPPRLPRPRPRPNNVPRP
- shrunken log2 fold change: -0.323

Sequence: RRIRKRPPRLPRPRPRPWRIPRP
- shrunken log2 fold change: 0.0387

Sequence: RRIRYRPPRLPRPRPRPHGRPRP
- shrunken log2 fold change: -0.00992

Sequence: RRIRKRPPRLPRPRPRPEQVPRP
- shrunken log2 fold change: 0.158

Sequence: RRIRQRPPRLPRPRPRPHVFPRP
- shrunken log2 fold change: -0.000919

Sequence: RRIRFRPPRLPRPRPRPRTRPRP
- shrunken log2 fold change: 0.244

Sequence: RRIRVRPPRLPRPRPRPHIIPRP
- shrunken log2 fold change: -0.204

Sequence: RRIRERPPRLPRPRPRPDVNPRP
- shrunken log2 fold change: -0.0793

Sequence: RRIRHRPPRLPRPRPRPCQGPRP
- shrunken log2 fold change: -0.00822

Sequence: RRIRTRPPRLPRPRPRPTGFPRP
- shrunken log2 fold change: -0.0124

Sequence: RRIRLRPPRLPRPRPRPYKVPRP
- shrunken log2 fold change: -0.756

Sequence: RRIRCRPPRLPRPRPRPDDHPRP
- shrunken log2 fold change: -0.338

Sequence: RRIRERPPRLPRPRPRPRFLPRP
- shrunken log2 fold change: -0.18

Sequence: RRIRRRPPRLPRPRPRPLNEPRP
- shrunken log2 fold change: 0.162

Sequence: RRIRLRPPRLPRPRPRPGHMPRP
- shrunken log2 fold change: -0.236

Sequence: RRIRFRPPRLPRPRPRPLHHPRP
- shrunken log2 fold change: -0.434

Sequence: RRIRERPPRLPRPRPRPGCLPRP
- shrunken log2 fold change: -0.017

Sequence: RRIRNRPPRLPRPRPRPDLEPRP
- shrunken log2 fold change: 0.124

Sequence: RRIRYRPPRLPRPRPRPCFSPRP
- shrunken log2 fold change: -0.594

Sequence: RRIRHRPPRLPRPRPRPDFNPRP
- shrunken log2 fold change: -0.607

Sequence: RRIRMRPPRLPRPRPRPFRMPRP
- shrunken log2 fold change: 0.00199

Sequence: RRIRPRPPRLPRPRPRPAKWPRP
- shrunken log2 fold change: 0.0878

Sequence: RRIRPRPPRLPRPRPRPNNPPRP
- shrunken log2 fold change: -0.415

Sequence: RRIRMRPPRLPRPRPRPMDVPRP
- shrunken log2 fold change: -0.0209

Sequence: RRIRDRPPRLPRPRPRPGRHPRP
- shrunken log2 fold change: 0.186

Sequence: RRIRNRPPRLPRPRPRPHNVPRP
- shrunken log2 fold change: -0.0343

Sequence: RRIRKRPPRLPRPRPRPTMDPRP
- shrunken log2 fold change: 0.0288

Sequence: RRIRPRPPRLPRPRPRPMNSPRP
- shrunken log2 fold change: -0.125

Sequence: RRIRYRPPRLPRPRPRPSKCPRP
- shrunken log2 fold change: -0.00419

Sequence: RRIRERPPRLPRPRPRPTHGPRP
- shrunken log2 fold change: 0.0992

Sequence: RRIRIRPPRLPRPRPRPIRLPRP
- shrunken log2 fold change: -0.41

Sequence: RRIRWRPPRLPRPRPRPTWLPRP
- shrunken log2 fold change: 0.694

Sequence: RRIRVRPPRLPRPRPRPWRHPRP
- shrunken log2 fold change: 0.288

Sequence: RRIRARPPRLPRPRPRPVHYPRP
- shrunken log2 fold change: -0.198

Sequence: RRIRNRPPRLPRPRPRPIHEPRP
- shrunken log2 fold change: -0.00804

Sequence: RRIRPRPPRLPRPRPRPPMKPRP
- shrunken log2 fold change: 0.0802

Sequence: RRIRQRPPRLPRPRPRPKFIPRP
- shrunken log2 fold change: -0.0852

Sequence: RRIRYRPPRLPRPRPRPITTPRP
- shrunken log2 fold change: 0.0271

Sequence: RRIRIRPPRLPRPRPRPDQHPRP
- shrunken log2 fold change: -0.202

Sequence: RRIRKRPPRLPRPRPRPSKNPRP
- shrunken log2 fold change: 0.219

Sequence: RRIRLRPPRLPRPRPRPWLRPRP
- shrunken log2 fold change: -0.0452

Sequence: RRIRARPPRLPRPRPRPYGSPRP
- shrunken log2 fold change: -0.0423

Sequence: RRIRWRPPRLPRPRPRPFYLPRP
- shrunken log2 fold change: -0.336

Sequence: RRIRYRPPRLPRPRPRPHGHPRP
- shrunken log2 fold change: -0.358

Sequence: RRIRERPPRLPRPRPRPHSTPRP
- shrunken log2 fold change: -0.817

Sequence: RRIRNRPPRLPRPRPRPNRDPRP
- shrunken log2 fold change: -0.0094

Sequence: RRIRDRPPRLPRPRPRPCDVPRP
- shrunken log2 fold change: -0.0231

Sequence: RRIRCRPPRLPRPRPRPFNGPRP
- shrunken log2 fold change: -0.148

Sequence: RRIRPRPPRLPRPRPRPIWGPRP
- shrunken log2 fold change: 0.0815

Sequence: RRIRLRPPRLPRPRPRPHHTPRP
- shrunken log2 fold change: -0.558

Sequence: RRIRYRPPRLPRPRPRPGMFPRP
- shrunken log2 fold change: -0.524

Sequence: RRIRYRPPRLPRPRPRPTKGPRP
- shrunken log2 fold change: -0.136

Sequence: RRIRWRPPRLPRPRPRPMVVPRP
- shrunken log2 fold change: 0.026

Sequence: RRIRVRPPRLPRPRPRPAIMPRP
- shrunken log2 fold change: 0.191

Sequence: RRIRFRPPRLPRPRPRPEGFPRP
- shrunken log2 fold change: 0.518

Sequence: RRIRIRPPRLPRPRPRPSHAPRP
- shrunken log2 fold change: -0.283

Sequence: RRIRRRPPRLPRPRPRPKLPPRP
- shrunken log2 fold change: 0.369

Sequence: RRIRERPPRLPRPRPRPFACPRP
- shrunken log2 fold change: -0.433

Sequence: RRIRMRPPRLPRPRPRPRISPRP
- shrunken log2 fold change: 0.395

Sequence: RRIRIRPPRLPRPRPRPRQTPRP
- shrunken log2 fold change: -0.0527

Sequence: RRIRVRPPRLPRPRPRPRHLPRP
- shrunken log2 fold change: -0.222

Sequence: RRIRGRPPRLPRPRPRPLAKPRP
- shrunken log2 fold change: 1.29

Sequence: RRIRDRPPRLPRPRPRPHCFPRP
- shrunken log2 fold change: 0.00117

Sequence: RRIRDRPPRLPRPRPRPFQSPRP
- shrunken log2 fold change: 0.0407

Sequence: RRIRQRPPRLPRPRPRPNGKPRP
- shrunken log2 fold change: -0.362

Sequence: RRIRDRPPRLPRPRPRPLPHPRP
- shrunken log2 fold change: -0.146

Sequence: RRIRGRPPRLPRPRPRPHTYPRP
- shrunken log2 fold change: -0.0875

Sequence: RRIRERPPRLPRPRPRPCRCPRP
- shrunken log2 fold change: 0.00968

Sequence: RRIRQRPPRLPRPRPRPYWIPRP
- shrunken log2 fold change: -0.152

Sequence: RRIRQRPPRLPRPRPRPTYQPRP
- shrunken log2 fold change: -0.109

Sequence: RRIRNRPPRLPRPRPRPQCAPRP
- shrunken log2 fold change: -0.0727

Sequence: RRIRMRPPRLPRPRPRPYESPRP
- shrunken log2 fold change: 0.107

Sequence: RRIRTRPPRLPRPRPRPSCCPRP
- shrunken log2 fold change: -0.341

Sequence: RRIRQRPPRLPRPRPRPEWTPRP
- shrunken log2 fold change: -0.00618

Sequence: RRIRRRPPRLPRPRPRPTLRPRP
- shrunken log2 fold change: 0.712

Sequence: RRIRGRPPRLPRPRPRPMSWPRP
- shrunken log2 fold change: 0.252

Sequence: RRIRPRPPRLPRPRPRPINMPRP
- shrunken log2 fold change: -0.503

Sequence: RRIRWRPPRLPRPRPRPDVLPRP
- shrunken log2 fold change: -0.0113

Sequence: RRIRIRPPRLPRPRPRPRRKPRP
- shrunken log2 fold change: 0.0881

Sequence: RRIRMRPPRLPRPRPRPVRNPRP
- shrunken log2 fold change: 0.0163

Sequence: RRIRMRPPRLPRPRPRPELTPRP
- shrunken log2 fold change: 3.52

Sequence: RRIRVRPPRLPRPRPRPQQRPRP
- shrunken log2 fold change: 0.0774

Sequence: RRIRHRPPRLPRPRPRPKPVPRP
- shrunken log2 fold change: 0.239

Sequence: RRIRSRPPRLPRPRPRPTSHPRP
- shrunken log2 fold change: -0.0965

Sequence: RRIRLRPPRLPRPRPRPAAGPRP
- shrunken log2 fold change: 0.312

Source: the supplement of paper PMC9112550, “Optimization of the antimicrobial peptide Bac7 by deep mutational scanning” (BMC Biology, 2022)
